In US20210246451, “APTAMER FOR ADAMTS5 AND USE FOR APTAMER FOR ADAMTS5” (RIBOMIC INC., published 2021):
Residue numbers refer to the chain shown, from its start.

T1: ADAMTS5 (UniProt Q9UNA0 Q9UNA0:262-622)
T1 sequence: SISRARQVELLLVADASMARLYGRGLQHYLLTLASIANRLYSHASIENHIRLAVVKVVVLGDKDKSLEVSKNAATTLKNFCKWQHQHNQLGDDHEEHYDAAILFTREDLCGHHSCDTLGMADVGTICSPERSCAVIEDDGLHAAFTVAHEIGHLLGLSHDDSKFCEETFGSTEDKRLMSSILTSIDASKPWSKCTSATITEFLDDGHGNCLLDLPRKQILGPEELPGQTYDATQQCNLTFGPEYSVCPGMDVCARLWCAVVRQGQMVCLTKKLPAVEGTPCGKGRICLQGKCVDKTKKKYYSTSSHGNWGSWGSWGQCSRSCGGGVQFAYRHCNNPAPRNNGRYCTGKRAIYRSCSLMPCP

B1: SEQ ID NO: 31 (ssRNA)
RNA: GGGUAUUGGGGCCUCCACAGUUGAAGCUUGGACUAAACCAAUCUCGA
modifications: 2'-F pyrimidines
B2: SEQ ID NO: 32 (ssRNA)
RNA: B1 RNA with U21A, U22A, G23A, G26U
modifications: 2'-F pyrimidines
B3: SEQ ID NO: 33 (ssRNA)
RNA: B1 RNA with U21C, U22C, A25G
modifications: 2'-F pyrimidines
B4: SEQ ID NO: 34 (ssRNA)
RNA: GGGUAUUGGGGCCUCCACAGAAAAAACUUGGACUAAACCAACUCGA
modifications: 2'-F pyrimidines
B5: SEQ ID NO: 42 (ssRNA)
RNA: B4 RNA with A22U, A25U, A26U
modifications: 2'-F pyrimidines
B6: SEQ ID NO: 35 (ssRNA)
RNA: B4 RNA with A21U, A24G, A25C, A41G
modifications: 2'-F pyrimidines
B7: SEQ ID NO: 36 (ssRNA)
RNA: B4 RNA with A21U, A22U, A23U
modifications: 2'-F pyrimidines
B8: SEQ ID NO: 30 (ssRNA)
RNA: GGGUAUUGGGGCCUCCACAAUAGAUAAAUGGACUAAACCAACUCGA
modifications: 2'-F pyrimidines
B9: SEQ ID NO: 37 (ssRNA)
RNA: B4 RNA with A21U, A25U, A26U
modifications: 2'-F pyrimidines
B10: SEQ ID NO: 39 (ssRNA)
RNA: GGGUAUUGGGGCCUCCACGUAACUAAACUGGACUAAACCAACUCGA
modifications: 2'-F pyrimidines
B11: SEQ ID NO: 38 (ssRNA)
RNA: GGGUAUUGGGGCCUCCACGCUAGAAGGCUGGACUAAACCAACUCGA
modifications: 2'-F pyrimidines
B12: SEQ ID NO: 40 (ssRNA)
RNA: B11 RNA with U21A, G23U, A24G, A25G, G26U
modifications: 2'-F pyrimidines
B13: SEQ ID NO: 41 (ssRNA)
RNA: GGGUAUUGGGGCCUCCACAUGGAUACAUUGGACUAAACCAACUCGA
modifications: 2'-F pyrimidines
B14: 10(1) (ssRNA)
RNA: AUUGGGGCCUCCACAGCUGCUCAGCUUGGACUAAACCAAU
modifications: as SEQ 10 plus 2'-OMe at C8
B15: 10(2) (ssRNA)
RNA: B14 RNA
modifications: as SEQ 10 plus 2'-OMe at C9
B16: 10(3) (ssRNA)
RNA: B14 RNA
modifications: as SEQ 10 plus 2'-OMe at U10
B17: 10(5) (ssRNA)
RNA: B14 RNA
modifications: as SEQ 10 plus 2'-OMe at C12
B18: 10(8) (ssRNA)
RNA: B14 RNA
modifications: as SEQ 10 plus 2'-OMe at U32
B19: 10(4) (ssRNA)
RNA: B14 RNA
modifications: as SEQ 10 plus 2'-OMe at C11
B20: 10(6) (ssRNA)
RNA: B14 RNA
modifications: as SEQ 10 plus 2'-OMe at U27
B21: 10(7) (ssRNA)
RNA: B14 RNA
modifications: as SEQ 10 plus 2'-OMe at C31
B22: 11(1) (ssRNA)
RNA: AUUGGGGCCUCCACAGCGCUCGCUUGGACUAAACCAAU
modifications: 2'-OMe at 1-5,15-26,32-38; 2'-F other pyrimidines
B23: 11(17) (ssRNA)
RNA: B22 RNA
modifications: as 11(1) with PS between 6 and 7
B24: 11(13) (mixed)
RNA: B22 RNA
modifications: as 11(1) with dT at 30
B25: 11(16) (ssRNA)
RNA: B22 RNA
modifications: as 11(1) with PS between 5 and 6
B26: 11(21) (ssRNA)
RNA: B22 RNA
modifications: as 11(1) with PS between 10 and 11
B27: 11(19) (ssRNA)
RNA: B22 RNA
modifications: as 11(1) with PS between 8 and 9
B28: 11(30) (ssRNA)
RNA: B22 RNA
modifications: as 11(1) with PS between 30 and 31
B29: 11(8) (mixed)
RNA: B22 RNA
modifications: as 11(1) with dC at 12
B30: 11(33) (ssRNA)
RNA: B22 RNA
modifications: as 11(1) with 5' 40 kDa branched PEG and 3' idT
B31: 11(18) (ssRNA)
RNA: B22 RNA
modifications: as 11(1) with PS between 7 and 8
B32: 11(15) (mixed)
RNA: B22 RNA
modifications: as 11(1) with dA at 13
B33: 11(3) (mixed)
RNA: B22 RNA
modifications: as 11(1) with dG at 7
B34: 11(14) (mixed)
RNA: B22 RNA
modifications: as 11(1) with dA at 31
B35: 11(12) (mixed)
RNA: B22 RNA
modifications: as 11(1) with dC at 29
B36: 11(20) (ssRNA)
RNA: B22 RNA
modifications: as 11(1) with PS between 9 and 10
B37: 11(9) (mixed)
RNA: B22 RNA
modifications: as 11(1) with dC at 14
B38: 11(2) (mixed)
RNA: B22 RNA
modifications: as 11(1) with dG at 6
B39: 11(32) (ssRNA)
RNA: B22 RNA
modifications: as 11(1) with PS between 8-9, 9-10, 10-11, 14-15; 3' idT
B40: 11(5) (mixed)
RNA: B22 RNA
modifications: as 11(1) with dC at 9
B41: 11(6) (mixed)
RNA: B22 RNA
modifications: as 11(1) with dT at 10
B42: 11(25) (ssRNA)
RNA: B22 RNA
modifications: as 11(1) with PS between 14 and 15
B43: 11(7) (mixed)
RNA: B22 RNA
modifications: as 11(1) with dC at 11
B44: 11(4) (mixed)
RNA: B22 RNA
modifications: as 11(1) with dC at 8
B45: SEQ ID NO: 14 (ssRNA)
RNA: B22 RNA with G18U, C19U, U20C, C21G
modifications: 2'-OMe at 1-5,15-26,32-38; 2'-F other pyrimidines
B46: 11(11) (mixed)
RNA: B22 RNA
modifications: as 11(1) with dA at 28
B47: 11(10) (mixed)
RNA: B22 RNA
modifications: as 11(1) with dG at 27
B48: SEQ ID NO: 13 (ssRNA)
RNA: B22 RNA with A1G, U2C, A37G, U38C
modifications: 2'-OMe at 1-5,15-26,32-38; 2'-F other pyrimidines

Molecular target: T1, ADAMTS5
Experiment: SPR; RU ratio >=40%
Settings: tags: R&D Systems

B1: binds.
B2: binds.
B3: binds.
B4: binds.
B5: binds.
B6: binds.
B7: binds.
B8: binds.
B9: binds.
B10: binds.
B11: binds.
B12: binds.
B13: binds.

Molecular target: T1, ADAMTS5
Experiment: inhibition; 10 nM
Settings: tags: R&D Systems
Protocol: Whether an aptamer having the nucleotide sequence shown in SEQ ID NO: 1 inhibits the enzyme activity of ADAMTS5 was evaluated by the following method. As a substrate of ADAMTS5, the G1-IGD-G2 domain of aggrecan (manufactured by R&D systems) was used. ADAMTS5 specifically cleaves in between the 392nd glutamic acid and the 393rd alanine in the G1-IGD-G2 domain and produces two fragments. These fragments have faster electrophoretic mobility than uncleaved G1-IGD-G2. Thus, the enzyme activity of ADAMTS5 can be measured by quantifying the band intensity of G1-IGD-G2 by SDS-PAGE electrophoresis. The assay was performed in a solution A buffer with a reaction mixture volume of 10 μL. First, a mixture (10 μL) of a nucleic acid and ADAMTS5 was prepared and incubated at 25° C. for 15 min. To a substrate solution (5 μL) diluted with solution A was added a mixture (5 μL) of the nucleic acid and ADAMTS5 to start the enzyme reaction. The final concentration of ADAMTS5 in the reaction solution was 5 nM, and the final substrate concentration was 50 μg/mL. The reaction solution was incubated at 37° C. for 2 hr, 2 μL of solution D was added, and the mixture was heated at 95° C. for 2 min to stop the enzyme reaction of ADAMTS5. Solution D contains 0.25 M tris (pH 6.8), 10% SDS, 50% glycerol, 0.25% bromo phenolblue, and 20% 2-mercaptoethanol. The heat-treated reaction solution was electrophoresed by 7.5% SDS-PAGE and stained with SYPRO Orange (manufactured by Sigma-Aldrich). The staining was performed according to the manual of Sigma-Aldrich and detected using STORM840 manufactured by GE Healthcare. […] The amount of uncleaved substrate in each reaction solution was quantified from the band intensity and the standard curve. The substrate cleavage efficiency of ADAMTS5 under these reaction conditions was 80-100%. The inhibition rate of the test substance was calculated using the following equation.
The aptamers having the sequences shown in SEQ ID NOs: 10(1)-10(8) and 11(1)-11(35), SEQ ID NO: 13-15 were all produced by chemical synthesis.

In order of rising activity:
1. B16  2 % inhibition
2. B19  3.6 % inhibition
3. B17  8.5 % inhibition
4. B41  9.2 % inhibition
5. B21  10.4 % inhibition
6. B15  12.6 % inhibition
7. B18  12.8 % inhibition
8. B33  19.5 % inhibition
9. B24  20.3 % inhibition
10. B43  23 % inhibition
11. B46  32 % inhibition
12. B40  34.2 % inhibition
13. B28  38.3 % inhibition
14. B14  41.3 % inhibition
15. B29  43.2 % inhibition
16. B34  45.1 % inhibition
17. B32  50.4 % inhibition
18. B25  50.9 % inhibition
19. B44  50.9 % inhibition
20. B30  55.5 % inhibition
21. B48  58.4 % inhibition
22. B39  58.8 % inhibition
23. B47  59.1 % inhibition
24. B31  60.3 % inhibition
25. B45  60.5 % inhibition
26. B38  60.6 % inhibition
27. B37  60.8 % inhibition
28. B20  61.8 % inhibition
29. B35  62.5 % inhibition
30. B22  62.8 % inhibition
31. B23  70 % inhibition
32. B36  74.7 % inhibition
33. B42  76.4 % inhibition
34. B26  80.3 % inhibition
35. B27  81.1 % inhibition
